Our source for the 50% geometric mean neutralizing reciprocal titer (50% GMT) (50% GMT (reciprocal titer)) and neutralization of AAV2-nLuc transduction (reciprocal dilution) values is patent publication US20240000914A1.

For the assay, the target named is adeno-associated virus 2 (AAV2) vector capsid (AAV2-nLuc) (adeno-associated virus 2) (UniProt P03135). Nature of the assay: cell-based or functional assay.
Sequence of UniProt P03135 (P03135 whole entry, the tested form may be a part): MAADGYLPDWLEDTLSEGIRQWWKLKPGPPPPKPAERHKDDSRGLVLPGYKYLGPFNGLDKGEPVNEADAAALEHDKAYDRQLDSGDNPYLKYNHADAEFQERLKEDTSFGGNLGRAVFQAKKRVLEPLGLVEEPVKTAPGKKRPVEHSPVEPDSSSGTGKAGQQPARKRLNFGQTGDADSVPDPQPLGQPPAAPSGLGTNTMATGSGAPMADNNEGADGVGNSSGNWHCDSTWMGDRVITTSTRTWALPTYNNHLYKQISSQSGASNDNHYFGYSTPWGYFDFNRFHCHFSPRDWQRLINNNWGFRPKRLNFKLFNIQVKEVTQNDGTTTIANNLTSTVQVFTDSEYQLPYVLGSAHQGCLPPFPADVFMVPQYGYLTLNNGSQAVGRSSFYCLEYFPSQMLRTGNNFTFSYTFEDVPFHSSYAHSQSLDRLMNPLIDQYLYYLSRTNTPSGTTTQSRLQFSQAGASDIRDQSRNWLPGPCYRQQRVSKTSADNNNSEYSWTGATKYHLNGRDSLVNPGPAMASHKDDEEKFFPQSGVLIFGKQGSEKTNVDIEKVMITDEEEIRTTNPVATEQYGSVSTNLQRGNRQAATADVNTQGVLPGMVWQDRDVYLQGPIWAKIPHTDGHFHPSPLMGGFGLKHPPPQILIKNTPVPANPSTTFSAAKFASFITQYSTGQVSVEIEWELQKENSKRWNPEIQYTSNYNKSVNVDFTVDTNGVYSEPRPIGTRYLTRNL

Regarding “human intravenous immunoglobulin (IVIG) (antibody)”, the 50% geometric mean neutralizing reciprocal titer (50% GMT) (50% GMT (reciprocal titer)) worked out at 1280 and the neutralization of AAV2-nLuc transduction (reciprocal dilution) is 1250.
